# Reference: patent publication US20250218531A1 (ABSCI, published 2025)
# Biological target: human epidermal growth factor receptor 2 (HER2) extracellular domain (human, UniProt P04626 23-629)
# Experiment: SPR, Fab format
Binder,Kd,log(KD (M))
"Multi-step trastuzumab HCDR3 variant ARSGGSGYYYYDY (SEQ ID NO: 524) (Fab, V domains shown) VH: EVQLVESGGGLVQPGGSLRLSCAASGFNIKDTYIHWVRQAPGKGLEWVARIYPTNGYTRYADSVKGRFTISADTSKNTAYLQMNSLRAEDTAVYYCARSGGSGYYYYDYWGQGTLVTVSS VL: not shown",1830 nM,-5.74 log M
"De novo trastuzumab HCDR1|2|3 variant GFNFKDTY / IYPANGYT / ASDGGSYSYAFDY (Fab, V domains shown, also called AI Design 5) VH: EVQLVESGGGLVQPGGSLRLSCAASGFNFKDTYIHWVRQAPGKGLEWVARIYPANGYTRYADSVKGRFTISADTSKNTAYLQMNSLRAEDTAVYYCASDGGSYSYAFDYWGQGTLVTVSS VL: not shown",642 nM,-6.19 log M
"De novo trastuzumab HCDR1|2|3 variant GFNIKDTW / IDPANGYT / ARVGGRGYYYYDY (Fab, V domains shown, also called AI Design 4) VH: EVQLVESGGGLVQPGGSLRLSCAASGFNIKDTWIHWVRQAPGKGLEWVARIDPANGYTRYADSVKGRFTISADTSKNTAYLQMNSLRAEDTAVYYCARVGGRGYYYYDYWGQGTLVTVSS VL: not shown",394 nM,-6.4 log M
"De novo trastuzumab HCDR1|2|3 variant GFNIKDYY / IYPSRGYT / ARHGSEGRYTMDV (Fab, V domains shown, also called AI Design 3) VH: EVQLVESGGGLVQPGGSLRLSCAASGFNIKDYYIHWVRQAPGKGLEWVARIYPSRGYTRYADSVKGRFTISADTSKNTAYLQMNSLRAEDTAVYYCARHGSEGRYTMDVWGQGTLVTVSS VL: not shown",192 nM,-6.72 log M
"De novo trastuzumab HCDR1|2|3 variant GFNISDYY / IYPSSGYT / ARDGGVGSYSMDV (Fab, V domains shown, also called AI Design 2) VH: EVQLVESGGGLVQPGGSLRLSCAASGFNISDYYIHWVRQAPGKGLEWVARIYPSSGYTRYADSVKGRFTISADTSKNTAYLQMNSLRAEDTAVYYCARDGGVGSYSMDVWGQGTLVTVSS VL: not shown",1320 nM,-5.88 log M
"De novo trastuzumab HCDR2|3 variant IDPADGYT / AREGGYGYYAMDY (Fab, V domains shown, also called AI Design 6) VH: EVQLVESGGGLVQPGGSLRLSCAASGFNIKDTYIHWVRQAPGKGLEWVARIDPADGYTRYADSVKGRFTISADTSKNTAYLQMNSLRAEDTAVYYCAREGGYGYYAMDYWGQGTLVTVSS VL: not shown",160 nM,-6.8 log M
"De novo trastuzumab HCDR2|3 variant IDPANGYT / ARVGGRGYYYYDY (Fab, V domains shown, also called AI Design 7) VH: EVQLVESGGGLVQPGGSLRLSCAASGFNIKDTYIHWVRQAPGKGLEWVARIDPANGYTRYADSVKGRFTISADTSKNTAYLQMNSLRAEDTAVYYCARVGGRGYYYYDYWGQGTLVTVSS VL: not shown",134 nM,-6.87 log M
"De novo trastuzumab HCDR2|3 variant IDPENGYT / ARVGGYGYYYYDY (Fab, V domains shown) VH: EVQLVESGGGLVQPGGSLRLSCAASGFNIKDTYIHWVRQAPGKGLEWVARIDPENGYTRYADSVKGRFTISADTSKNTAYLQMNSLRAEDTAVYYCARVGGYGYYYYDYWGQGTLVTVSS VL: not shown",277 nM,-6.56 log M
"De novo trastuzumab HCDR2|3 variant IYPANGYT / AREGGVGYYSFAY (Fab, V domains shown) VH: EVQLVESGGGLVQPGGSLRLSCAASGFNIKDTYIHWVRQAPGKGLEWVARIYPANGYTRYADSVKGRFTISADTSKNTAYLQMNSLRAEDTAVYYCAREGGVGYYSFAYWGQGTLVTVSS VL: not shown",213 nM,-6.67 log M
"De novo trastuzumab HCDR2|3 variant IYPANGYT / ASSGGGYSYYYTY (Fab, V domains shown) VH: EVQLVESGGGLVQPGGSLRLSCAASGFNIKDTYIHWVRQAPGKGLEWVARIYPANGYTRYADSVKGRFTISADTSKNTAYLQMNSLRAEDTAVYYCASSGGGYSYYYTYWGQGTLVTVSS VL: not shown",476 nM,-6.32 log M
"De novo trastuzumab HCDR2|3 variant IYPANGYT / ASSGGSSSYYYNY (Fab, V domains shown) VH: EVQLVESGGGLVQPGGSLRLSCAASGFNIKDTYIHWVRQAPGKGLEWVARIYPANGYTRYADSVKGRFTISADTSKNTAYLQMNSLRAEDTAVYYCASSGGSSSYYYNYWGQGTLVTVSS VL: not shown",554 nM,-6.26 log M
"De novo trastuzumab HCDR2|3 variant IYPEDGST / ARSGGSSTYAYDY (Fab, V domains shown) VH: EVQLVESGGGLVQPGGSLRLSCAASGFNIKDTYIHWVRQAPGKGLEWVARIYPEDGSTRYADSVKGRFTISADTSKNTAYLQMNSLRAEDTAVYYCARSGGSSTYAYDYWGQGTLVTVSS VL: not shown",669 nM,-6.17 log M
"De novo trastuzumab HCDR2|3 variant IYPSNGYT / ARSGYYYSYSFDY (Fab, V domains shown) VH: EVQLVESGGGLVQPGGSLRLSCAASGFNIKDTYIHWVRQAPGKGLEWVARIYPSNGYTRYADSVKGRFTISADTSKNTAYLQMNSLRAEDTAVYYCARSGYYYSYSFDYWGQGTLVTVSS VL: not shown",348 nM,-6.46 log M
"De novo trastuzumab HCDR2|3 variant IYPSNGYT / ARSSGYYSYSYDY (Fab, V domains shown) VH: EVQLVESGGGLVQPGGSLRLSCAASGFNIKDTYIHWVRQAPGKGLEWVARIYPSNGYTRYADSVKGRFTISADTSKNTAYLQMNSLRAEDTAVYYCARSSGYYSYSYDYWGQGTLVTVSS VL: not shown",230 nM,-6.64 log M
"De novo trastuzumab HCDR2|3 variant IYPSNGYT / ARYGGSYAYYFYY (Fab, V domains shown, also called AI Design 8) VH: EVQLVESGGGLVQPGGSLRLSCAASGFNIKDTYIHWVRQAPGKGLEWVARIYPSNGYTRYADSVKGRFTISADTSKNTAYLQMNSLRAEDTAVYYCARYGGSYAYYFYYWGQGTLVTVSS VL: not shown",18.6 nM,-7.73 log M
"De novo trastuzumab HCDR2|3 variant IYPSNGYT / ARYRGSSSYYFDY (Fab, V domains shown) VH: EVQLVESGGGLVQPGGSLRLSCAASGFNIKDTYIHWVRQAPGKGLEWVARIYPSNGYTRYADSVKGRFTISADTSKNTAYLQMNSLRAEDTAVYYCARYRGSSSYYFDYWGQGTLVTVSS VL: not shown",907 nM,-6.04 log M

Binder,Kd,log(KD (M))
"De novo trastuzumab HCDR2|3 variant IYPSNGYT / ARYYGGSMYYYGY (Fab, V domains shown) VH: EVQLVESGGGLVQPGGSLRLSCAASGFNIKDTYIHWVRQAPGKGLEWVARIYPSNGYTRYADSVKGRFTISADTSKNTAYLQMNSLRAEDTAVYYCARYYGGSMYYYGYWGQGTLVTVSS VL: not shown",109 nM,-6.96 log M
"De novo trastuzumab HCDR2|3 variant IYPSSGYT / ASSGGRYYYYYDY (Fab, V domains shown) VH: EVQLVESGGGLVQPGGSLRLSCAASGFNIKDTYIHWVRQAPGKGLEWVARIYPSSGYTRYADSVKGRFTISADTSKNTAYLQMNSLRAEDTAVYYCASSGGRYYYYYDYWGQGTLVTVSS VL: not shown",591 nM,-6.23 log M
"De novo trastuzumab HCDR2|3 variant IYSSDGYT / ARSGGSSYYYYDY (Fab, V domains shown) VH: EVQLVESGGGLVQPGGSLRLSCAASGFNIKDTYIHWVRQAPGKGLEWVARIYSSDGYTRYADSVKGRFTISADTSKNTAYLQMNSLRAEDTAVYYCARSGGSSYYYYDYWGQGTLVTVSS VL: not shown",810 nM,-6.09 log M
"Multi-step trastuzumab HCDR3 variant ARDGGGGFYAYDY (SEQ ID NO: 534) (Fab, V domains shown) VH: EVQLVESGGGLVQPGGSLRLSCAASGFNIKDTYIHWVRQAPGKGLEWVARIYPTNGYTRYADSVKGRFTISADTSKNTAYLQMNSLRAEDTAVYYCARDGGGGFYAYDYWGQGTLVTVSS VL: not shown",124 nM,-6.91 log M
"Multi-step trastuzumab HCDR3 variant ARDGGGGVYAFTY (SEQ ID NO: 525) (Fab, V domains shown) VH: EVQLVESGGGLVQPGGSLRLSCAASGFNIKDTYIHWVRQAPGKGLEWVARIYPTNGYTRYADSVKGRFTISADTSKNTAYLQMNSLRAEDTAVYYCARDGGGGVYAFTYWGQGTLVTVSS VL: not shown",364 nM,-6.44 log M
"Multi-step trastuzumab HCDR3 variant ARDGGRGRYAMDY (SEQ ID NO: 541) (Fab, V domains shown) VH: EVQLVESGGGLVQPGGSLRLSCAASGFNIKDTYIHWVRQAPGKGLEWVARIYPTNGYTRYADSVKGRFTISADTSKNTAYLQMNSLRAEDTAVYYCARDGGRGRYAMDYWGQGTLVTVSS VL: not shown",402 nM,-6.4 log M
"Multi-step trastuzumab HCDR3 variant ARDGGRSYYSFYY (SEQ ID NO: 538) (Fab, V domains shown) VH: EVQLVESGGGLVQPGGSLRLSCAASGFNIKDTYIHWVRQAPGKGLEWVARIYPTNGYTRYADSVKGRFTISADTSKNTAYLQMNSLRAEDTAVYYCARDGGRSYYSFYYWGQGTLVTVSS VL: not shown",104 nM,-6.98 log M
"Multi-step trastuzumab HCDR3 variant ARDGGSSSYSYSY (SEQ ID NO: 535) (Fab, V domains shown) VH: EVQLVESGGGLVQPGGSLRLSCAASGFNIKDTYIHWVRQAPGKGLEWVARIYPTNGYTRYADSVKGRFTISADTSKNTAYLQMNSLRAEDTAVYYCARDGGSSSYSYSYWGQGTLVTVSS VL: not shown",146 nM,-6.83 log M
"Multi-step trastuzumab HCDR3 variant ARDRGVSGYYLYY (SEQ ID NO: 516) (Fab, V domains shown) VH: EVQLVESGGGLVQPGGSLRLSCAASGFNIKDTYIHWVRQAPGKGLEWVARIYPTNGYTRYADSVKGRFTISADTSKNTAYLQMNSLRAEDTAVYYCARDRGVSGYYLYYWGQGTLVTVSS VL: not shown",567 nM,-6.25 log M
"Multi-step trastuzumab HCDR3 variant ARSGGGSYYYYDY (SEQ ID NO: 546) (Fab, V domains shown) VH: EVQLVESGGGLVQPGGSLRLSCAASGFNIKDTYIHWVRQAPGKGLEWVARIYPTNGYTRYADSVKGRFTISADTSKNTAYLQMNSLRAEDTAVYYCARSGGGSYYYYDYWGQGTLVTVSS VL: not shown",308 nM,-6.51 log M
"Multi-step trastuzumab HCDR3 variant ARSGGRYTYGFDY (SEQ ID NO: 551) (Fab, V domains shown) VH: EVQLVESGGGLVQPGGSLRLSCAASGFNIKDTYIHWVRQAPGKGLEWVARIYPTNGYTRYADSVKGRFTISADTSKNTAYLQMNSLRAEDTAVYYCARSGGRYTYGFDYWGQGTLVTVSS VL: not shown",1410 nM,-5.85 log M
"Multi-step trastuzumab HCDR3 variant ARSGGSGYYSYNY (SEQ ID NO: 523) (Fab, V domains shown) VH: EVQLVESGGGLVQPGGSLRLSCAASGFNIKDTYIHWVRQAPGKGLEWVARIYPTNGYTRYADSVKGRFTISADTSKNTAYLQMNSLRAEDTAVYYCARSGGSGYYSYNYWGQGTLVTVSS VL: not shown",603 nM,-6.22 log M
"Multi-step trastuzumab HCDR3 variant ARSGGSSFYGMDY (SEQ ID NO: 519) (Fab, V domains shown) VH: EVQLVESGGGLVQPGGSLRLSCAASGFNIKDTYIHWVRQAPGKGLEWVARIYPTNGYTRYADSVKGRFTISADTSKNTAYLQMNSLRAEDTAVYYCARSGGSSFYGMDYWGQGTLVTVSS VL: not shown",680 nM,-6.17 log M
"Multi-step trastuzumab HCDR3 variant ARSGGSSYYYYDY (SEQ ID NO: 508) (Fab, V domains shown) VH: EVQLVESGGGLVQPGGSLRLSCAASGFNIKDTYIHWVRQAPGKGLEWVARIYPTNGYTRYADSVKGRFTISADTSKNTAYLQMNSLRAEDTAVYYCARSGGSSYYYYDYWGQGTLVTVSS VL: not shown",1070 nM,-5.97 log M
"Multi-step trastuzumab HCDR3 variant ARSGGSYSYSFDV (SEQ ID NO: 522) (Fab, V domains shown) VH: EVQLVESGGGLVQPGGSLRLSCAASGFNIKDTYIHWVRQAPGKGLEWVARIYPTNGYTRYADSVKGRFTISADTSKNTAYLQMNSLRAEDTAVYYCARSGGSYSYSFDVWGQGTLVTVSS VL: not shown",1070 nM,-5.97 log M
